B1: deimmunized J415, heavy chain version 1 with light chain version 5 (antibody, V domains shown)
VH: EVKLEESGGGLVQPGGSMKISCKASGFTFSNYWMNWVRQTPEKGLEWVALIRSQSNNFATHYAESVKGRVIISRDDSKSSVYLQMNSLRAEDTAVYYCTRRWNNFWGQGTTVTVSS
VL: NIVMTQFPKSMSASAGERMTLTCKASENVGTYVSWYQQKPTQSPKMLIYGASNRFTGVPDRFSGSGSGTDFILTISSVQAEDLVDYYCGQSYTFPYTFGGGTKLEMK
B2: deimmunized J415, heavy chain version 2 with light chain version 5 (antibody, V domains shown)
VH: EVKLEESGGGLVQPGGSMKISCVASGFTFSNYWMNWVRQTPEKGLEWVALIRSQSNNFATHYAESVKGRVIISRDDSKSSVYLQMNSLRAEDTAVYYCTRRWNNFWGQGTTVTVSS
VL: NIVMTQFPKSMSASAGERMTLTCKASENVGTYVSWYQQKPTQSPKMLIYGASNRFTGVPDRFSGSGSGTDFILTISSVQAEDLVDYYCGQSYTFPYTFGGGTKLEMK

Molecular target: prostate specific membrane antigen (PSMA) on LNCaP cells (human, UniProt Q04609)
Assay: ELISA on plates coated with LNCaP membrane preparation, purified antibody

Binder | fold change against the chimeric antibody [fold less]
B1 | 2
B2 | 2

Reference: patent publication US7666414B2, “Methods for treating prostate cancer using modified antibodies to prostate-specific membrane antigen” (Cornell Research Foundation, Inc., dated 2010)
